US20250042946A1, “Biological Production of Histidine-Rich Peptides” (Oakgrove Bio LLC, priority 2021, published 2025)

B1: IFP-Luna-006: split fusion, two copies of Lunasin sandwiched between three copies of IFP100, SEQ ID NO: 102 (protein)
chain: MASGGGQQHYHYHQQGGGGQQHYHYHQQGGDPGGSKWQHQQDSCRKQLQGVNLTPCEKHIMEKIQGRGDDDDDDDDDPGGGGQQHYHYHQQGGGGQQHYHYHQQGGDPGGSKWQHQQDSCRKQLQGVNLTPCEKHIMEKIQGRGDDDDDDDDDPGGGGQQHYHYHQQGGGGQQHYHYHQQGGGPGPGPHHHHHH
B2: IFP-Api-003: split fusion, Apidaecin sandwiched between two copies of IFP100, cLNK GGDPGG, SEQ ID NO: 98 (protein)
chain: MASGGGQQHYHYHQQGGGGQQHYHYHQQGGDPGGGNNRPVYIPQPRPPHPPRGGDPGGQQHYHYHQQGGGGQQHYHYHQQGGGPGPGPHHHHHH
B3: IFP-Api-006: split fusion, two copies of Apidaecin sandwiched between three copies of IFP100, SEQ ID NO: 100 (protein)
chain: MASGGGQQHYHYHQQGGGGQQHYHYHQQGGDPGGGNNRPVYIPQPRPPHPPRGGDPGGQQHYHYHQQGGGGQQHYHYHQQGGDPGGGNNRPVYIPQPRPPHPPRGGDPGGQQHYHYHQQGGGGQQHYHYHQQGGGPGPGPHHHHH
B4: IIP015: insoluble immunogenic peptide, 6 × SAP234 with 3 × Ova1, Structure 9, SEQ ID NO: 114 (protein)
chain: MASGGDPGGQQHYHYHQQGGGGSIINFEKLGGGGQQHYHYHQQGGDPGGQQHYHYHQQGGGGSIINFEKLGGGGQQHYHYHQQGGDPGGQQHYHYHQQGGGGSIINFEKLGGGGQQHYHYHQQGGDPGGPGPGP
B5: IFP221: insolubility fusion partner of IFP221-Api; 3 × QQEYHYHYHYRQQ with GGGG spacers as in SEQ ID NO: 94 (protein)
chain: MASGGGQQEYHYHYHYRQQGGGGQQEYHYHYHYRQQGGGGQQEYHYHYHYRQQGGGDPGGGNNRPVYIPQPRPPHPRLGGGGDPGGGNNRPVYIPQPRPPHPRLGGGGDPGPGPHHHHHH
B6: IIP003: insoluble immunogenic peptide, 6 × SAP162 with 3 × Ova1, Structure 9, SEQ ID NO: 104 (protein)
chain: MASGGDPGGHQEYHYHYRQHGGGGSIINFEKLGGGGHQEYHYHYRQHGGDPGGHQEYHYHYRQHGGGGSIINFEKLGGGGHQEYHYHYRQHGGDPGGHQEYHYHYRQHGGGGSIINFEKLGGGGHQEYHYHYRQHGGDPGGPGPGP

Key:
[1] = format: physicochemical
Description: After the acid-based purification step at acidic pH described in Example 5, the neutralized insoluble fusion peptides were washed again with water to remove traces of buffer and were resuspended in 1 mL of 10 mM HCl pH 2. The precipitates resolubilized immediately thus highlighting the rapid, reversible and pH-controllable properties of the peptide fusions to IFPs The tubes containing the solubilized fusion peptides were incubated at 80° C. for 4 hours to allow the cleavage of the Asp-Pro acid-labile peptide bond in the linker connecting the IFP and the POI. After four hours at 80° C., the solutions were neutralized back to a pH comprised between 6.5 and 8.0 by addition of 60 μL of 500 mM Tris Base Tris per mL of pH 2 peptide solution. For most fusions, the neutralization was accompanied by the immediate formation of precipitates. When only a light precipitate was observed, the buffer was adjusted to neutrality by careful addition of HCl or of buffer base. The neutralized fractions were placed at −20° C. for 20 min to enhance precipitation, and then subsequently thawed and centrifuged at 20,000×g for 5 min. The supernatants were transferred to a new tube and the pellets resuspended in 1 ml of water. Aliquots of soluble and insoluble fractions were analyzed by PAGE.

[2] = Soluble versus insoluble fraction of E. coli cell extracts, SDS-PAGE; format: physicochemical; conditions: cell extract in 25 mM Tris 50 mM NaCl pH 7.5, centrifugation 20,000×g
Description: To determine the soluble versus insoluble cell contents, cells from each of the 3 mL cultures were harvested by centrifugation and the pellet resuspended in 1 ml of 25 mM Tris 50 mM NaCl PH 7.5 buffer. The cell suspensions were transferred in 2 mL screw cap tubes containing 0.5 mL of ZrO2/SiO4 0.1 mm beads (Research Product International, Mount Prospect, IL) and disrupted in a FastPrep-24™ bead beater (MP Bio Irvine, CA) for 1 min at 5 m/s. After disruption, the cell extracts were transferred to new microfuge tubes. The soluble and insoluble fractions were then separated by centrifugation at 20,000×g for 5 min. The supernatants containing the soluble proteins were transferred to new tubes and the pellets containing the inclusion bodies were resuspended in the same volume of Tris-NaCl buffer.
Ten μL aliquots of the soluble fraction and of the particulate fraction are analyzed by SDS-PAGE using precast NuPAGE™ Bis-Tris 12% polyacrylamide gels (Thermo Scientific) as indicated by the manufacturer. After electrophoresis, the proteins and peptides were visualized by staining with GelCode™ Blue Safe Protein Coomassie Stain (Thermo Scientific).

[3] = format: physicochemical; remark: listed apart in the source
Description: After 15 min at pH 2, the acidified supernatant fraction were neutralized by addition of 40 μL 500 mM Tris base or 60 μL of Bis-Tris base per mL of pH 2 fraction to reach a pH comprised between 6.5 and 8.0. For most fusions, the neutralization was accompanied by the immediate formation of a precipitate. When only a light precipitate was observed, the buffer was adjusted to neutrality by addition of HCl or of buffer base. The neutralized fractions were placed at −20° C. for 20 min and were subsequently thawed. The neutralized fractions were then centrifuged at 20,000×g for 5 min. Their supernatant was discarded and the pellets containing the insoluble fusion peptides resuspended in 1 ml of water.

[4] = format: physicochemical; conditions: pH 2
Description: To evaluate the useful solubilization of the IFPs at acidic and alkaline pH (from pH 2 to pH 12), the insoluble fractions of cell extracts expressing selected IFPs were produced as described in Example 2. They were pelleted by centrifugation for 5 min at 20,000×g and washed with water several times to remove the buffer. The washed pellets were resuspended in 10 mM HCl pH 2 or in 10 mM NaOH pH 12. Suspensions were mixed vigorously and allowed to stand at room temperature for 15 min at which time they were centrifuged again for 5 min at 20,000×g. The solubilization of the IFPs in either acidic (pH 2) or alkaline (pH 12) conditions was assessed by PAGE analysis of an aliquot of the centrifugation supernatant.
Cells were harvested by centrifugation at 20,000×g, resuspended in 1 mL of 25 mM Tris […] pH 7.5 and disrupted with a bead beater as described in Example 2. Following cell disruption and centrifugation, the insoluble fractions were washed several times in deionized water to remove traces of buffer and then recovered by centrifugation. The fractions were resuspended in 1 mL of 10 mM HCl pH 2 with repeated vortexing over 15 min at room temperature. […] Aliquots of each fraction corresponding to a same initial volume of cell extracts were analyzed by SDS-PAGE.

Molecule | solubility at neutral pH after acid cleavage (partition supernatant / pellet) [1] | solubility of the polypeptide as expressed in E. coli [2] | re-insolubilization (precipitation) upon neutralization [3] | solubilization at acidic pH [4]
IFP534: insolubility fusion partner, 4 × QQHYHYHQQ, GGGG linker, SEQ ID NO: 62 | remains in the insoluble fraction | – | – | –
Apidaecin | recovered in the soluble fraction | – | – | –
Lunasin | recovered in the soluble fraction | – | – | –
B1 | – | expressed the split fusion insolubly | – | –
B2 | – | expressed the split fusion insolubly | – | –
B3 | – | expressed the split fusion insolubly | – | –
B4 | – | produced insolubly | re-insolubilization | solubilization
B5 | remains in the insoluble fraction | – | – | –
B6 | – | produced insolubly | re-insolubilization | solubilization
